Laboratory results as given in the DeepSol protein solubility set.

assay: soluble on expression in E. coli; label from the status in PepcDB or PDB records

| Sequence | soluble on expression in E. coli |
| --- | --- |
| MPAIVLIGAQWGDEGKGKATDLLGGRVQWVVRYQGGNNAGHTVVLPTGENFALHLIPSGVLTPGVTNVIGNGVVIDPGVLLNELRGLQDRGVDTAKLLISADAHLLMPYHIAIDKVTERYMGSKKIGTTGRGIGPCYQDKIARIGIRVADVLDPEQLTHKVEAACEFKNQVLVKIYNRKALDPAQVVDALLEQAEGFKHRIADTRLLLNAALEAGETVLLEGSQGTLLDVDHGTYPYVTSSNPTAGGAAVGSGIGPTRIGTVLGILKAYTTRVGSGPFPTELFDEHGEYLSKTGREFGVTTGRRRRCGWFDAVIARYAARVNGITDYFLTKLDVLSSLESVPVCVGYEIDGRRTRDMPMTQRDLCRAKPVYEELPGWWEDISGAREFDDLPAKARDYVLRLEQLAGAPVSCIGVGPGREQTIVRRDVLQDRP | not soluble |
| MPAKVLINGYGSIGKRVADAVSMQDDMEVIGVTKTKPDFEARLAVEKGYKLFVAIPDNERVKLFEDAGIPVEGTILDIIEDADIVVDGAPKKIGKQNLENIYKPHKVKAILQGGEKAKDVEDNFNALWSYNRCYGKDYVRVVSCNTTGLCRILYAINSIADIKKARIVLVRRAADPNDDKTGPVNAITPNPVTVPSHHGPDVVSVVPEFEGKILTSAVIVPTTLMHMHTLMVEVDGDVSRDDILEAIKKTPRIITVRAEDGFSSTAKIIEYGRDLGRLRYDINELVVWEESINVLENEIFLMQAVHQESIVIPENIDCIRAMLQMEEDNFKSIEKTNKAMGIQ | soluble |
| MPALEFFKDKERGVLDPKVFERAREVAEGLARGKLKSSQFRNYFAELRALENRFERERRKEGEELAFARLVPQLELLRAKLFYNTRSQGPLRDAKEFVEFMEEALEAGKRSPKDFEAMMKYVEAVLAYFYALAK | soluble |
| MPALPPVYTPSGAPSSVHAPPAVPPVPVPTQPLRSEYQTSNDACIKRLEELNIAPAAKLYPTPTEPGKCGVEAEIQTNVFGIEMHQDSLFYQYSVNITTELKNGKEVTFTKKGKDDFVVTERHDKCCAILFRALGDYEEFFKTSDSCLIYDGQSILFSNVDLFQGFREGAVKTKYMQLDGGEMDHKDLKSLPCIKLEVFPTKNPAVKFTREAVARRATDSNLDSVSLAYQQILELALTQPCLRNTARYVVFDHGKMFFIDPLGEGFEKCDVVDVGDGKQVVPGLKKTINFIEGPYGRGRSNPSVVIDGMKVAFHKNQPILDKLKEITTQPVEHGLKGLEKDRCAAVIKGLDCYSTYGGRERHHKIEGIHHEGARNARFELNDGGSCTVAQYFEDVYNITLRYPDTNLIVSKERGNINFYPMELLKISSHQRVQIPQLTSAQSQKTTKESAVLPDVRQRLILTGKNAAQISSDNEVLGKMGVSVCEDPLMVKGRSIPAVKLANAEIGANPINVKDNKWRANRFTRPATAPNVWAMYVVGTASTRITLDTLKKFADEFAAMCKSKGVNMPAPADISLIHMDAIESRLYDATKANCTFVFIITDDSITTLHQRYKMIEKDTKMIVQDMKLSKALSVINAGKRLTLENVINKTNVKLGGSNYVFVDAKKQLDSHLIIGVGISAPPAGTKYAMENKGVLNPNVIGYAYNAQHNQEFSGDFVLNSASQDTLAPIEDIVMHSLNEYQKFHDGGLPRRVIVYRTGTSEGNHGSIMAYEIPLARAAMRDFSPDIQLVYIVVSKDHSFRFFKPDLASLASRPQATSSTASRHSAMPAAPKAWDLNIAPGILVDSIVTNPACKQFFLNSHITLQGTAKTPLYTVLADDAKVSMTALEDITYKLCHLHQIVGLPTSLPTPLYVANEYAKRGRNLWNEAVALNNVPTVSGPEADRLKELTKSICYKASGDLTGRRVNA | not soluble |
| MPALSHGLSRFRGEAKPPGPSPRRSRESMAMDSKASMFTHGARPARIALFSGNYNYTLDGANKSLNRLVDHVQRTTGAQVRIYSPTSPTPAFAPVGELVSVPSVTIPFRRDYRLALGLPAAVRRDVEAFAPDLIHLSAPDLLGAAALKLGRRLKTPVVASLHTLFDSYLDYYGLGGLRALARRRLWQFYGACDFVMTPTPAIGEELRAQNLGVQVRTWARGVDADLFNPARRSADWRAAQGFDPDRPVIVFLGRLVMEKGLAAFADTIDRLAASGPSPQVLIIGDGPARAWFQERLPMATFAGFLTGEALATALASADIFLNPSTTETFGNVNLEAMASGLAIVCADAPNTRALLRDGRDAILCAPSDPASYAQALLSLCQDQNRLRRMGAKALDRSAAYRWTEILDEVVDIYAEALDARASAPSRAEVSPHELRARTGRRAGLIDAQAAALSTPLEHHHHHH | soluble |
| MPASYAYLGPEGTFTEVALRTLPEAATRELVPMVSVPAALDAVRNGEAEAAFVPIENSVEGGITTTLDELVAGEPLMIYREVLLSITFALLVRPDTKLSEIKTVTAHPAAQPQVRNWMKANLPDVVWESAASNADGARLVQEGRYDAAFAGEFAAAKYGLVPLETGIHDAENAQTRFVLVGRPAR | not soluble |
| MPATAYERVVYKSPSEYHYMKVCLEFQEHGVGLNVAQFKQLLVSALRDLFGEVGAALPVDVLTYDEKTLSAILRICSSGLVKLWSSLTLFGAYKSKKCAFRVIQVSPFLLALSGNSREQVLD | not soluble |
| MPDNLSAIFGTILDYAEEVAAGTSNENDERPPRTSLTKKQQKAVSILRNFSTNDQKQEISFQELSQNVLDDWDISNIKSSSVQQLVELLNLPRVQGVLWAAQEISAGRFAPQLPDVPFEVDEDDGVAVKIVRIVRRGEPLGATIKCERGKVYVARIMANGVADRSGCIQEGDRVLEVNGITVADKEPREIVKLLDKCDNGIITFKLIPAEINQKLKQKKSSHRYARALFDYDPWQDKRHPCPEAAISFRGGDILEILDEKDQYWWQTRKIGFGALARRKESHDDENRDDSKKVGLVPSEWLQCQSEIPENGIDTSDDFQSFLENHKGRFYESVFRWRNKKKRRRVVVLLGAPGVGRNEIRRQFFKVFADRFTNAIPHTSRPQRPNESDGVNYYFTSRSEMERMIERKEMLEYGEFRDNLYGTALKSVRKASEKGTVLLTPHPLAIENIRTWEFAPIVIFVQPPEFGEFKHTREVYRSQTTRSHSAASSSNISQNTAATSAARAFSDVEIRQIIDNSAQMEQKYRGYCDAIIRNVDLDTTMNELTGLIYQLESKATWMPMKWLDDIGE | not soluble |
| MPDPQISAIICTHNRDTYLGAAIDSLLVQDFAGEFEVVVIDNGSSDRTREVVEQRSSDSRLKYVFEPTIGLSVARNTGAKFASAEILAYLDDDAVASTHWLQVLYAAYQNYPQLAIAGGKVTLLWPPDTQPPRWLSSGLAGNLGAYDLGDKVVYIQQPGLTPRGLNYSIRRTFLEEIGGFDPHLGRVGKNLLSNEELQMTELALTGGWQVAYLPEALVAHNVAPERLNRSWFLNRGWWQGISECYREQLSGKAGVGQLSRGGERLARGLYKAFRYFSNPAERFDNLVYAYGQIGYLNAVLQGLLFTANNKGSQLEHHHHHH | soluble |
| MPDYDLIAILGPTASGKTPFAAALAAELNTEIISADSRQIYRGMDLGTGKDLEDYTINGRQIPYHLIDIADPGYKYNVFEYQRDFLTAYETIKQKGCLPVLCGGTGLYLESVLKGYRLIPVPENQELRVRLAEKSLEELTAILSSYKTLHNSTDVDTVKRAIRAIEIEEYYAKTPIEEREFPQLNSLIIGVDIDRELRREKITRRLKQRLDDGMVEEVRRLLAEGIQPDDLIYYGLEYKYLTLYAIGKMTYDEMFTGLETAIHQFAKRQMTWFRGMERRGFTIHWVDASLPMEEKINFVKQKLKEFLEHHHHHH | soluble |
| MPEAVVLINSASDANSIEQTALPVPMALVHRTRVQDAFPVSWIPKGGDRFSVTAVLPHDHPFFAPVHGDRHDPLLIAETLRQAAMLVFHAGYGVPVGYHFLMATLDYTCHLDHLGVSGEVAELEVEVACSQLKFRGGQPVQGQVDWAVRRAGRLAATGTATTRFTSPQVYRRMRGDFATPTASVPGTAPVPAARAGRTRDEDVVLSASSQQDTWRLRVDTSHPTLFQRPNDHVPGMLLLEAARQAACLVTGPAPFVPSIGGTRFVRYAEFDSPCWIQATVRPGPAAGLTTVRVTGHQDGSLVFLTTLSGPAFSGAAALEHHHHHH | not soluble |
